Measurements: the supplement of paper PMC9428881
± gives the standard error.

Assay: background-corrected fluorescence of 3'-dye-labeled ssDNA relative to brightest sequence (3'-GCGCG) (fraction); higher = brighter dye fluorescence (less quenching)
Procedure: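 Single-stranded DNA is synthesized in situ on glass microarrays by 5'->3' photolithographic synthesis, with a Cy3 or Cy5 phosphoramidite coupled at the 3' end next to all 1024 permuted pentamers P1-P5. The construct is 5'-T5-(ACGT minus P5..P1 trinucleotides)-T15-P5P4P3P2P1-dye-3'; the dye is a 3' terminal modification, not part of the sequence. Arrays were scanned at 532 nm (Cy3) or 635 nm (Cy5), background from unlabeled oligos was subtracted, and values are averaged over 10 replicate features per array and at least 3 independent syntheses.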

Row | Sequence | background-corrected fluorescence (dye: Cy3 (3' terminal)) | background-corrected fluorescence (dye: Cy5 (3' terminal))
1 | TTTTTGCATGAGCATCAGCATTTTTTTTTTTTTTTTCTGT [TGTCT] | 0.594 ± 0.015 | 0.433 ± 0.02
2 | TTTTTGCATGAGCATCATCATTTTTTTTTTTTTTTTCTGG [GGTCT] | 0.563 ± 0.024 | 0.43 ± 0.035
3 | TTTTTGCATGAGCATCATGATTTTTTTTTTTTTTTTCTGC [CGTCT] | 0.491 ± 0.029 | 0.368 ± 0.024
4 | TTTTTGCATGAGCATCATGCTTTTTTTTTTTTTTTTCTGA [AGTCT] | 0.611 ± 0.018 | 0.56 ± 0.037
5 | TTTTTGCATGAGCATGAGCATTTTTTTTTTTTTTTTCTCT | 0.464 ± 0.014 | 0.332 ± 0.024
6 | TTTTTGCATGAGCATGATCATTTTTTTTTTTTTTTTCTCG [GCTCT] | 0.506 ± 0.02 | 0.376 ± 0.039
7 | TTTTTGCATGAGCATGATGATTTTTTTTTTTTTTTTCTCC [CCTCT] | 0.335 ± 0.042 | 0.268 ± 0.019
8 | TTTTTGCATGAGCATGATGCTTTTTTTTTTTTTTTTCTCA [ACTCT] | 0.456 ± 0.019 | 0.348 ± 0.022
9 | TTTTTGCATGAGCATGCGCATTTTTTTTTTTTTTTTCTAT [TATCT] | 0.501 ± 0.027 | 0.37 ± 0.029
10 | TTTTTGCATGAGCATGCTCATTTTTTTTTTTTTTTTCTAG [GATCT] | 0.52 ± 0.027 | 0.401 ± 0.031
11 | TTTTTGCATGAGCATGCTGATTTTTTTTTTTTTTTTCTAC [CATCT] | 0.409 ± 0.017 | 0.296 ± 0.017
12 | TTTTTGCATGAGCATGCTGCTTTTTTTTTTTTTTTTCTAA [AATCT] | 0.539 ± 0.023 | 0.454 ± 0.047
13 | TTTTTGCATGATCAGCAGCATTTTTTTTTTTTTTTTCGTT [TTGCT] | 0.55 ± 0.029 | 0.417 ± 0.026
14 | TTTTTGCATGATCAGCATCATTTTTTTTTTTTTTTTCGTG [GTGCT] | 0.525 ± 0.015 | 0.441 ± 0.029
15 | TTTTTGCATGATCAGCATGATTTTTTTTTTTTTTTTCGTC [CTGCT] | 0.467 ± 0.034 | 0.352 ± 0.03
16 | TTTTTGCATGATCAGCATGCTTTTTTTTTTTTTTTTCGTA | 0.59 ± 0.023 | 0.457 ± 0.043
17 | TTTTTGCATGATCATCAGCATTTTTTTTTTTTTTTTCGGT [TGGCT] | 0.66 ± 0.028 | 0.513 ± 0.035
18 | TTTTTGCATGATCATCATCATTTTTTTTTTTTTTTTCGGG [GGGCT] | 0.664 ± 0.02 | 0.558 ± 0.044
19 | TTTTTGCATGATCATCATGATTTTTTTTTTTTTTTTCGGC [CGGCT] | 0.546 ± 0.031 | 0.47 ± 0.042
20 | TTTTTGCATGATCATCATGCTTTTTTTTTTTTTTTTCGGA [AGGCT] | 0.734 ± 0.076 | 0.648 ± 0.024
21 | TTTTTGCATGATCATGAGCATTTTTTTTTTTTTTTTCGCT | 0.486 ± 0.0071 | 0.392 ± 0.085
22 | TTTTTGCATGATCATGATCATTTTTTTTTTTTTTTTCGCG [GCGCT] | 0.93 ± 0.023 | 0.964 ± 0.064

Row | Sequence | background-corrected fluorescence (dye: Cy3 (3' terminal)) | background-corrected fluorescence (dye: Cy5 (3' terminal))
23 | TTTTTGCATGATCATGATGATTTTTTTTTTTTTTTTCGCC [CCGCT] | 0.462 ± 0.036 | 0.337 ± 0.022
24 | TTTTTGCATGATCATGATGCTTTTTTTTTTTTTTTTCGCA [ACGCT] | 0.569 ± 0.035 | 0.434 ± 0.029
25 | TTTTTGCATGATCATGCGCATTTTTTTTTTTTTTTTCGAT [TAGCT] | 0.64 ± 0.011 | 0.441 ± 0.022
26 | TTTTTGCATGATCATGCTCATTTTTTTTTTTTTTTTCGAG [GAGCT] | 0.616 ± 0.029 | 0.478 ± 0.035
27 | TTTTTGCATGATCATGCTGATTTTTTTTTTTTTTTTCGAC [CAGCT] | 0.448 ± 0.03 | 0.378 ± 0.038
28 | TTTTTGCATGATCATGCTGCTTTTTTTTTTTTTTTTCGAA [AAGCT] | 0.632 ± 0.0073 | 0.524 ± 0.043
29 | TTTTTGCATGATGAGCAGCATTTTTTTTTTTTTTTTCCTT | 0.435 ± 0.027 | 0.351 ± 0.029
30 | TTTTTGCATGATGAGCATCATTTTTTTTTTTTTTTTCCTG [GTCCT] | 0.475 ± 0.028 | 0.366 ± 0.034
31 | TTTTTGCATGATGAGCATGATTTTTTTTTTTTTTTTCCTC [CTCCT] | 0.351 ± 0.02 | 0.266 ± 0.019
32 | TTTTTGCATGATGAGCATGCTTTTTTTTTTTTTTTTCCTA [ATCCT] | 0.455 ± 0.019 | 0.355 ± 0.019
33 | TTTTTGCATGATGATCAGCATTTTTTTTTTTTTTTTCCGT [TGCCT] | 0.613 ± 0.021 | 0.484 ± 0.027
34 | TTTTTGCATGATGATCATCATTTTTTTTTTTTTTTTCCGG [GGCCT] | 0.617 ± 0.0071 | 0.539 ± 0.037
35 | TTTTTGCATGATGATCATGATTTTTTTTTTTTTTTTCCGC [CGCCT] | 0.504 ± 0.022 | 0.412 ± 0.025
36 | TTTTTGCATGATGATCATGCTTTTTTTTTTTTTTTTCCGA [AGCCT] | 0.581 ± 0.026 | 0.552 ± 0.031
37 | TTTTTGCATGATGATGAGCATTTTTTTTTTTTTTTTCCCT | 0.472 ± 0.027 | 0.317 ± 0.026
38 | TTTTTGCATGATGATGATCATTTTTTTTTTTTTTTTCCCG [GCCCT] | 0.509 ± 0.013 | 0.381 ± 0.04
39 | TTTTTGCATGATGATGATGATTTTTTTTTTTTTTTTCCCC [CCCCT] | 0.33 ± 0.022 | 0.243 ± 0.015
40 | TTTTTGCATGATGATGATGCTTTTTTTTTTTTTTTTCCCA [ACCCT] | 0.441 ± 0.036 | 0.346 ± 0.035
41 | TTTTTGCATGATGATGCGCATTTTTTTTTTTTTTTTCCAT [TACCT] | 0.477 ± 0.025 | 0.344 ± 0.024
42 | TTTTTGCATGATGATGCTCATTTTTTTTTTTTTTTTCCAG [GACCT] | 0.47 ± 0.02 | 0.377 ± 0.02
43 | TTTTTGCATGATGATGCTGATTTTTTTTTTTTTTTTCCAC [CACCT] | 0.379 ± 0.023 | 0.273 ± 0.016
44 | TTTTTGCATGATGATGCTGCTTTTTTTTTTTTTTTTCCAA [AACCT] | 0.536 ± 0.038 | 0.388 ± 0.025

Row | Sequence | background-corrected fluorescence (dye: Cy3 (3' terminal)) | background-corrected fluorescence (dye: Cy5 (3' terminal))
45 | TTTTTGCATGATGCGCAGCATTTTTTTTTTTTTTTTCATT [TTACT] | 0.485 ± 0.03 | 0.359 ± 0.028
46 | TTTTTGCATGATGCGCATCATTTTTTTTTTTTTTTTCATG [GTACT] | 0.524 ± 0.054 | 0.377 ± 0.019
47 | TTTTTGCATGATGCGCATGATTTTTTTTTTTTTTTTCATC [CTACT] | 0.406 ± 0.0046 | 0.305 ± 0.028
48 | TTTTTGCATGATGCGCATGCTTTTTTTTTTTTTTTTCATA [ATACT] | 0.518 ± 0.019 | 0.396 ± 0.024
49 | TTTTTGCATGATGCTCAGCATTTTTTTTTTTTTTTTCAGT [TGACT] | 0.596 ± 0.016 | 0.488 ± 0.05
50 | TTTTTGCATGATGCTCATCATTTTTTTTTTTTTTTTCAGG [GGACT] | 0.606 ± 0.034 | 0.486 ± 0.034
51 | TTTTTGCATGATGCTCATGATTTTTTTTTTTTTTTTCAGC [CGACT] | 0.492 ± 0.012 | 0.393 ± 0.047
52 | TTTTTGCATGATGCTCATGCTTTTTTTTTTTTTTTTCAGA [AGACT] | 0.615 ± 0.017 | 0.531 ± 0.036
53 | TTTTTGCATGATGCTGAGCATTTTTTTTTTTTTTTTCACT | 0.447 ± 0.036 | 0.334 ± 0.02
54 | TTTTTGCATGATGCTGATCATTTTTTTTTTTTTTTTCACG [GCACT] | 0.491 ± 0.03 | 0.399 ± 0.022
55 | TTTTTGCATGATGCTGATGATTTTTTTTTTTTTTTTCACC [CCACT] | 0.382 ± 0.011 | 0.265 ± 0.016
56 | TTTTTGCATGATGCTGATGCTTTTTTTTTTTTTTTTCACA [ACACT] | 0.485 ± 0.015 | 0.379 ± 0.034
57 | TTTTTGCATGATGCTGCGCATTTTTTTTTTTTTTTTCAAT [TAACT] | 0.554 ± 0.027 | 0.386 ± 0.019
58 | TTTTTGCATGATGCTGCTCATTTTTTTTTTTTTTTTCAAG [GAACT] | 0.515 ± 0.054 | 0.39 ± 0.042
59 | TTTTTGCATGATGCTGCTGATTTTTTTTTTTTTTTTCAAC [CAACT] | 0.429 ± 0.0094 | 0.318 ± 0.025
60 | TTTTTGCATGATGCTGCTGCTTTTTTTTTTTTTTTTCAAA [AAACT] | 0.562 ± 0.024 | 0.462 ± 0.051
61 | TTTTTGCATGCGCAGCAGCATTTTTTTTTTTTTTTTATTT | 0.539 ± 0.04 | 0.381 ± 0.021
62 | TTTTTGCATGCGCAGCATCATTTTTTTTTTTTTTTTATTG [GTTAT] | 0.522 ± 0.018 | 0.359 ± 0.021
63 | TTTTTGCATGCGCAGCATGATTTTTTTTTTTTTTTTATTC [CTTAT] | 0.394 ± 0.023 | 0.292 ± 0.018
64 | TTTTTGCATGCGCAGCATGCTTTTTTTTTTTTTTTTATTA [ATTAT] | 0.545 ± 0.017 | 0.409 ± 0.035
65 | TTTTTGCATGCGCATCAGCATTTTTTTTTTTTTTTTATGT [TGTAT] | 0.639 ± 0.033 | 0.489 ± 0.046
66 | TTTTTGCATGCGCATCATCATTTTTTTTTTTTTTTTATGG [GGTAT] | 0.576 ± 0.011 | 0.467 ± 0.023
